The results in this text go back to patent US20120076796A1 (Ablynx, published 2012).

The target in test [1] is T1, Recombinant human Angiopoietin-1 (R&D Systems Cat No 923-AN/CF) (human, UniProt Q15389 20-498, limits assumed).
T1 construct: Bought reagent; also called Ang1; human Ang1
T1 sequence (looked up): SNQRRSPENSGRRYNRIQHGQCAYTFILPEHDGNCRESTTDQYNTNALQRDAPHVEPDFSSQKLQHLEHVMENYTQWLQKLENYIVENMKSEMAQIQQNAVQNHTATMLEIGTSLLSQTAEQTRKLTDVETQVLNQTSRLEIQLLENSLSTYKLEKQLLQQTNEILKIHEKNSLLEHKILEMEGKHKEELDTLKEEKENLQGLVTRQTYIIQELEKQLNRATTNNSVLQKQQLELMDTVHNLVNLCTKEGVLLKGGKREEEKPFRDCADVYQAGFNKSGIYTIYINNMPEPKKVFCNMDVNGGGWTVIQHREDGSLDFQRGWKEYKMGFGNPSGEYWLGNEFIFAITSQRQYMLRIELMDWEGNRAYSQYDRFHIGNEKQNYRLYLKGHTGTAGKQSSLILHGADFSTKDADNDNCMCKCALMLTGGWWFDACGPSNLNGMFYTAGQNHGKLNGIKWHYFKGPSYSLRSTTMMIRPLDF
The test is described as follows: phage ELISA: 10 ul monoclonal phage supernatant in 100 ul on 0.2 ug/ml coated Ang1, anti-M13-HRP, OD 450 nm. On the procedure:
(§1) In order to determine binding specificity to Ang1, the clones are tested in an ELISA binding assay setup, using the monoclonal phage pools. Phage binding to Ang1 (R&D Systems Cat No 923-AN/CF, Lot No FHWO73091) is tested. Shortly, 0.2 ug/ml Ang1 is immobilized on Maxisorp ELISA plates (Nunc) and free binding sites are blocked using 4% Marvel skimmed milk in PBS. Next, 10 ul of supernatant from the monoclonal phage inductions of the different clones in 100 ul 2% Marvel PBS are allowed to bind to the immobilized antigen. […] Binding specificity is determined based on OD values compared to controls having received an irrelevant phage or no phage.

Test [2] has as its target T2, Recombinant human Angiopoietin-2 (R&D Systems Cat No 623-AN/CF) (human, UniProt O15123 19-496, limits assumed).
T2 construct: Bought reagent; also called Ang2; human Ang2
T2 sequence (looked up): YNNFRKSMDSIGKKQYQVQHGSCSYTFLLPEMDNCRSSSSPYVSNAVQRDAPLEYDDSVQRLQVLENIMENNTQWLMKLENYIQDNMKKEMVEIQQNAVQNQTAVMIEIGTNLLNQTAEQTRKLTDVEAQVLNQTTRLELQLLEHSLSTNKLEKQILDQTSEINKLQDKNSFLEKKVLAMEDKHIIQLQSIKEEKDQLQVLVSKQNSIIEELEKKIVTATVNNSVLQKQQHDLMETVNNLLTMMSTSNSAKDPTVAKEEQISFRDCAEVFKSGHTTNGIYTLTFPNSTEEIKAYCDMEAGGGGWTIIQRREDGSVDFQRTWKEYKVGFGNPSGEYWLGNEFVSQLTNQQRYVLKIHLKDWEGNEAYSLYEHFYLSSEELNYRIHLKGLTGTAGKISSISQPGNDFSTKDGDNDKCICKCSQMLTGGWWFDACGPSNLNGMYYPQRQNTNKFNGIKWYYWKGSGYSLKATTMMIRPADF
Description: phage ELISA: 10 ul monoclonal phage supernatant in 100 ul on 0.2 ug/ml coated Ang2, anti-M13-HRP, OD 450 nm. Here is the method: as §1, with “to Ang2,” for “to Ang1,”, “to Ang2” for “to Ang1”, “No 623-AN/CF)” for “No 923-AN/CF, Lot No FHWO73091)”, “ug/ml Ang2” for “ug/ml Ang1”, “plates (Nuns)” for “plates (Nunc)”, “2% Marvel.” for “2% Marvel”

Test [3] deals with T3, biotinylated rh Ang2 (R&D Systems Cat No BT623, Lot No BNR174091) (human, UniProt O15123 19-496, limits assumed, biotinylated (sites not given)).
T3 construct: Bought reagent; also called biotinylated Ang2
T3 sequence (looked up): T2 sequence (looked up)
Description: competition ELISA: 0.05 ug/ml biotinylated Ang2 pre-incubated with 10 ul periplasmic extract, then on coated Tie2/Fc (4 ug/ml); bound Ang2 detected with extravidin-HRP; blocked partner: Tie2/Fc. On the procedure: Clones tested positive in the Ang2 binding assay are screened for their ability to block Ang2 binding to Tie2/Fc. For this, Nanobody-containing periplasmic extracts (P.E.) are used in an ELISA-based ligand competition setup. In short, 4 ug/ml human Tie2/Fc Chimera (R&D Systems Cat No 313-TI, Lot No BKC06)) is coated in 96 well Maxisorp microliter plates (Nunc) and blocked with 4% Marvel skimmed milk in PBS. In parallel, 0.05 ug/ml biotinylated rh Ang2 (R&D Systems Cat No BT623, Lot No BNR174091) is incubated with 10 ul of periplasmic extract containing nanobody of the different clones in 100 ul 2% Marvel/PBS. After 1 hour, the biotinylated Ang2-Nanobody pre-mixes are incubated 1 hour with the coated receptor. Bound biotinylated. Ang2 is detected using HRP-conjugated extravidin (SIGMA E2886-1mL, 126K4801). Blocking activity is determined as loss of OD signal, as compared to wells where no P.E., or irrelevant P.E., has been added.

Test [4] has as its target T3, biotinylated rh Ang2 (R&D Systems Cat …). Description: competition ELISA: 0.05 ug/ml biotinylated Ang2 pre-incubated with a dilution series of purified Nanobody, then on coated Tie2/Fc (4 ug/ml); bound Ang2 detected with extravidin-HRP; blocked partner: Tie2/Fc. On the procedure: In order to determine the receptor blocking efficiency of clones tested positive for Ang2 blocking, a dilution series of purified Nanobodies are tested in the ELISA-based ligand competition setup. In short, 4 ug/ml human Tie2/Fc Chimera (R&D Systems Cat No 313-TI, Lot No BKC06)) is coated in 96 well Maxisorp microtiter plates (Nunc) and blocked with 4% Marvel skimmed milk in PBS. In parallel, 0.05 ug/ml biotinylated rh Ang2 (R&D Systems Cat No BT623, Lot No BNR174091) is incubated with a dilution series of purified Nanobodies. After 1 hour, the biotinylated Ang2-Nanobody pre-mixes are incubated 1 hour with the coated receptor. Bound biotinylated Ang2 is detected using HRP-conjugated extravidin (SIGMA E2886-1ML, 126K4801). Blocking activity is determined as loss of OD signal, as compared to wells where no P.E., or irrelevant P.E. has been added.

Test [5] deals with T4, recombinant human Tie2/Fc Chimera (R&D Systems Cat No 313-TI, Lot No BKC06) (human, UniProt Q02763 23-745).
T4 construct: Bought reagent; also called receptor; not shown: Fc portion of the bought chimera
T4 sequence (Q02763 23-745, change not shown): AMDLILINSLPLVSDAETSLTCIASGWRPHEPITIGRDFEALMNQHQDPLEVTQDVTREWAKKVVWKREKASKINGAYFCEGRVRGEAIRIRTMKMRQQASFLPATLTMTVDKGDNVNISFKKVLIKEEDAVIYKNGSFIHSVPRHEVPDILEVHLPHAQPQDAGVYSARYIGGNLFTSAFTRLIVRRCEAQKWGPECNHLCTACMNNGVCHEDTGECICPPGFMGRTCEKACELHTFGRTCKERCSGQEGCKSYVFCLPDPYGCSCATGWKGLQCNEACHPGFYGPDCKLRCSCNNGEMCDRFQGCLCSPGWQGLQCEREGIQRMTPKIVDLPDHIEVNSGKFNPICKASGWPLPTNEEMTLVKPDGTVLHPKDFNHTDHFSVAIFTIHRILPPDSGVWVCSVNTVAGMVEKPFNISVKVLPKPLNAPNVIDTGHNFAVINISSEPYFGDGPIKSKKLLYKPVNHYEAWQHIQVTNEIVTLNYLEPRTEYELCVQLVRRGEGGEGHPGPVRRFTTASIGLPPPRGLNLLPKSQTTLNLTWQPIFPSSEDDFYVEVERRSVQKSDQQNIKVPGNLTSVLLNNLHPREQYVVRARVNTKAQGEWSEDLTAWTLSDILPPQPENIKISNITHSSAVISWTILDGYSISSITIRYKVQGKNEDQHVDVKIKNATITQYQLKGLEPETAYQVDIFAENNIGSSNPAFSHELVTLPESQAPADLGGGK
The test is described as follows: competition ELISA: 0.2 ug/ml Tie2/Fc pre-incubated with a dilution series of purified Nanobody, then on coated Ang1 (0.75 ug/ml); bound Tie2/Fc detected with anti-human IgG-HRP; blocked ligand: Ang1. Here is the method:
In order to determine the receptor blocking efficiency of clones tested positive for Ang1 competition, a dilution series of purified Nanobodies are tested in the ELISA-based ligand competition setup. In short, 0.75 ug/ml human. Ang1 (R&D Systems Cat No 923-AN/CF Lot No FHWO73091) is coated in 96 well Maxisorp microliter plates (Nunc) and blocked with 4% Marvel skimmed milk in PBS. In parallel, 0.2 ug/ml Tie2/Fc is incubated with a dilution series of purified Nanobodies. After 1 hour, the receptor-Nanobody pre-mixes are incubated 1 hour with the coated ligand. Bound Tie2/Fc is detected using HRP-conjugated goat anti-human IgG (Jackson Immunoresearch, Cat #109-035-098). Blocking activity is determined as loss of OD signal, as compared to wells where no P.E., or irrelevant P.E., has been added.

The target of test [6] is T4, recombinant human Tie2/Fc Chimera (R&D …). Description: phage ELISA: 10 ul monoclonal phage supernatant in 100 ul on 0.2 ug/ml coated Tie2/Fc, anti-M13-HRP, OD 450 nm. Here is the method: In order to determine binding specificity to Tie2, the clones are tested in an ELISA binding assay setup, using the monoclonal phage pools. Phage binding to Tie2/Fc Chimera (R&D Systems Cat No 313-TI, Lot No BKC06) is tested. Shortly, 0.2 ug/ml receptor is immobilized on Maxisorp ELISA plates (Nunc) and free binding sites are blocked using 4% Marvel skimmed milk in PBS. Next, 10 ul of supernatant from the monoclonal phage inductions of the different clones in 100 ul 2% Marvel PBS are allowed to bind to the immobilized antigen. […] Binding specificity is determined based on OD values compared to controls having received no phage and to controls where in a similar ELISA binding assay the same monoclonal phage are tested for binding to 0.2 ug/ml of immobilized human IgG and 0.2 ug/ml of rh B7.2/Fc.

Changes are numbered by the printed parent chain.

B1: 173-H9 (VHH)
VHH: EVQLVESGGGLVQPGGSLRLSCAASGFTLSGNWMYWLRQAPGKGLEWISTITPRGLTAYADSVKGRFTISRDIAENTLYLQMNSLKSGDTAVYYCARDKTGERRGQGTQVTVSS
notes: Nanobody
On to B1, for which, in test [1], the binding result is listed as “binds”.

B2: 166-C1 (VHH)
VHH: EVQLVESGGGLVQAGGSLRLSCAASGFTFGSTTIGWFRQAPGKEREGVSCISTGDGSTYYAESVKGRFTISSDNAKNTVYLQMNSLKPEDTAVYYCALDQAPMWSSWSAPYEYDYWGQGTQVTVSS
notes: Nanobody
Take B2: the binding result in test [2] and in test [3] was “binds” each time.

B3: 166-H4 (VHH)
VHH: B2 VHH with G10D, S31D, T32F, S52N, Y59N
notes: Nanobody
Turning to B3, in test [4], the “IC50 (read off the curve)” value is approximately 4 nM.

B4: 166-C10 (VHH)
VHH: B2 VHH with S31T, Y59N
notes: Nanobody
For B4, the binding result in test [2] and in test [3] was “binds” throughout.

B5: 166-D7 (VHH)
VHH: B2 VHH with G30S, S31D, V48I, K87N, M103L, S106T
notes: Nanobody
For the molecule B5, the binding result in test [2] and in test [3] was “binds” in each case.

B6: 166-F8 (VHH)
VHH: B2 VHH with S31T, G47V, D55G, A61T, S106N
notes: Nanobody
Consider B6, for which the binding result in test [2] and in test [3] was “binds” in each case.

B7: 162-E9 (VHH)
VHH: EVQLVESGGGLVQPGGSLRLSCAASGFTLDDYAIGWFRQAPGKEREAVSCISSVDGSTHYADSVKGRFTISRDNAKDTVYLQMNSLKPEDTAAYYCAVQGYSGGYYYTCEDSADFGFWGQGTQVTVSS
notes: Nanobody
With B7, in test [5], the “IC50 (read off the curve)” value was approximately 3 nM.

B8: 162-E1 (VHH)
VHH: EVQLVESGGGLVQAGGSLRLSCAASGSIFSINAMGWYQQAPGKQRELVAFITSVGTTNYADSVKGRFIISRDNAKNTVYLQMNSLKPEDTAVYYCAADLHYSGPNYWGQGTQVTVSS
notes: Nanobody; Footnote: q in FR2 of 162-E1 from an Amber stop codon
As for B8, the “IC50 (read off the curve)” value in test [5] is approximately 3 nM.

B9: 184-B6 (VHH)
VHH: EVQLVESGGGLVQPGGSLRLSCAASGFTFSNYAMTWVRQAPGKGLEWVSDISWDGDITTYAASVKGRFTISRDNAKKTLYLQMNSLKPEDSAVYYCNTYGYDSGRYYSYWGQGTQVTVSS
notes: Nanobody
In the case of B9, in test [1], the binding result is recorded as “binds”.

B10: 185-H5 (VHH)
VHH: EVQLVESGGGLVQPGGSLRLSCAASGFTLDYYAIGWFRQAPGKEREGVSYISSSDGRTYYADSVKGRFTISRDNAKNTVYLQMNSLKPEDTAVYYCATDLSGRGDVSEYEYDYWGQGTQVTVSS
notes: Nanobody
With B10, the binding result in test [1] is listed as “binds”.

B11: 162-F3 (VHH)
VHH: EVQLVESGGGLVQAGDSLRLSCTTSGRTFSDDTMGWFRQAPRKEREFVAAILWDSIKTYYADSVKGRFTISRDNAKNTVYLQMDSLKPEDTAVYYCAATPTAYGTDWYRNNYHYWGQGTQVTVSS
notes: Nanobody
For B11, in test [6], the binding result is recorded as “binds”.
